Measured values published in the supplement of paper PMC9112550, “Optimization of the antimicrobial peptide Bac7 by deep mutational scanning” (BMC Biology, 2022).

Test system: Escherichia coli TOP10
Test: shrunken log2 fold change of peptide-encoding DNA abundance (4.5 h post-induction vs induction); higher = less antimicrobial activity (less host growth inhibition)
Conditions: time post-induction: 4.5 h; library: site-saturation at positions 5, 18, 19, 20
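Further: peptides expressed intracellularly from a pBAD plasmid library in pooled LB shake-flask culture, induced with 0.3% L-arabinose, DNA abundance read by NGS, three biological replicates, DESeq2 with apeglm shrinkage.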

| Sequence | shrunken log2 fold change |
| --- | --- |
| RRIRFRPPRLPRPRPRPLMEPRP | -0.00741 |
| RRIRFRPPRLPRPRPRPLNWPRP | -0.109 |
| RRIRFRPPRLPRPRPRPLQHPRP | -0.134 |
| RRIRFRPPRLPRPRPRPMAAPRP | -0.0736 |
| RRIRFRPPRLPRPRPRPMASPRP | 0.037 |
| RRIRFRPPRLPRPRPRPMCSPRP | -0.687 |
| RRIRFRPPRLPRPRPRPMEYPRP | 0.0429 |
| RRIRFRPPRLPRPRPRPMGSPRP | -0.22 |
| RRIRFRPPRLPRPRPRPMGTPRP | -0.0834 |
| RRIRFRPPRLPRPRPRPMHGPRP | -0.0727 |
| RRIRFRPPRLPRPRPRPMIRPRP | -0.163 |
| RRIRFRPPRLPRPRPRPMIWPRP | -0.101 |
| RRIRFRPPRLPRPRPRPMKAPRP | 0.035 |
| RRIRFRPPRLPRPRPRPMLHPRP | -0.376 |
| RRIRFRPPRLPRPRPRPMLQPRP | -0.152 |
| RRIRFRPPRLPRPRPRPMLSPRP | -0.0375 |
| RRIRFRPPRLPRPRPRPMLVPRP | -0.0924 |
| RRIRFRPPRLPRPRPRPMMRPRP | 0.126 |
| RRIRFRPPRLPRPRPRPMNKPRP | -0.65 |
| RRIRFRPPRLPRPRPRPMNSPRP | -0.325 |
| RRIRFRPPRLPRPRPRPMPKPRP | 0.856 |
| RRIRFRPPRLPRPRPRPMQMPRP | 0.142 |
| RRIRFRPPRLPRPRPRPMQQPRP | -0.0268 |
| RRIRFRPPRLPRPRPRPMRTPRP | 0.547 |
| RRIRFRPPRLPRPRPRPMSQPRP | 0.0397 |

| Sequence | shrunken log2 fold change |
| --- | --- |
| RRIRFRPPRLPRPRPRPMSWPRP | 0.131 |
| RRIRFRPPRLPRPRPRPMTDPRP | -0.269 |
| RRIRFRPPRLPRPRPRPMTLPRP | -0.107 |
| RRIRFRPPRLPRPRPRPMTNPRP | -0.2 |
| RRIRFRPPRLPRPRPRPMVKPRP | -0.219 |
| RRIRFRPPRLPRPRPRPMWDPRP | -0.469 |
| RRIRFRPPRLPRPRPRPMYFPRP | -0.331 |
| RRIRFRPPRLPRPRPRPMYMPRP | -0.183 |
| RRIRFRPPRLPRPRPRPMYNPRP | -0.294 |
| RRIRFRPPRLPRPRPRPNAFPRP | 0.00827 |
| RRIRFRPPRLPRPRPRPNAGPRP | -0.0253 |
| RRIRFRPPRLPRPRPRPNAHPRP | 0.0459 |
| RRIRFRPPRLPRPRPRPNAWPRP | -0.171 |
| RRIRFRPPRLPRPRPRPNCLPRP | -0.0273 |
| RRIRFRPPRLPRPRPRPNEEPRP | -0.0458 |
| RRIRFRPPRLPRPRPRPNGEPRP | 0.0684 |
| RRIRFRPPRLPRPRPRPNHCPRP | -0.0425 |
| RRIRFRPPRLPRPRPRPNHKPRP | -0.405 |
| RRIRFRPPRLPRPRPRPNIKPRP | -0.504 |
| RRIRFRPPRLPRPRPRPNKWPRP | -0.266 |
| RRIRFRPPRLPRPRPRPNLSPRP | -0.259 |
| RRIRFRPPRLPRPRPRPNRAPRP | 0.091 |
| RRIRFRPPRLPRPRPRPNRHPRP | -0.874 |
| RRIRFRPPRLPRPRPRPNRRPRP | 0.048 |
| RRIRFRPPRLPRPRPRPNSWPRP | -0.0266 |

| Sequence | shrunken log2 fold change |
| --- | --- |
| RRIRFRPPRLPRPRPRPNSYPRP | -0.372 |
| RRIRFRPPRLPRPRPRPNWNPRP | -0.42 |
| RRIRFRPPRLPRPRPRPNWVPRP | -0.126 |
| RRIRFRPPRLPRPRPRPNYAPRP | -0.127 |
| RRIRFRPPRLPRPRPRPNYNPRP | -1.12 |
| RRIRFRPPRLPRPRPRPNYYPRP | -0.613 |
| RRIRFRPPRLPRPRPRPPALPRP | 0.509 |
| RRIRFRPPRLPRPRPRPPANPRP | 0.858 |
| RRIRFRPPRLPRPRPRPPAQPRP | 1.02 |
| RRIRFRPPRLPRPRPRPPARPRP | 0.694 |
| RRIRFRPPRLPRPRPRPPATPRP | 0.562 |
| RRIRFRPPRLPRPRPRPPCAPRP | 0.576 |
| RRIRFRPPRLPRPRPRPPCPPRP | 0.46 |
| RRIRFRPPRLPRPRPRPPDVPRP | 0.0274 |
| RRIRFRPPRLPRPRPRPPETPRP | 0.261 |
| RRIRFRPPRLPRPRPRPPGWPRP | 0.448 |
| RRIRFRPPRLPRPRPRPPHSPRP | 0.386 |
| RRIRFRPPRLPRPRPRPPLIPRP | -0.182 |
| RRIRFRPPRLPRPRPRPPLTPRP | 0.354 |
| RRIRFRPPRLPRPRPRPPLWPRP | 0.46 |
| RRIRFRPPRLPRPRPRPPMRPRP | 1.05 |
| RRIRFRPPRLPRPRPRPPMTPRP | -0.0559 |
| RRIRFRPPRLPRPRPRPPNMPRP | -0.0513 |
| RRIRFRPPRLPRPRPRPPNSPRP | -0.544 |
| RRIRFRPPRLPRPRPRPPPPPRP | 1.58 |

| Sequence | shrunken log2 fold change |
| --- | --- |
| RRIRFRPPRLPRPRPRPPPWPRP | 0.961 |
| RRIRFRPPRLPRPRPRPPQEPRP | 0.258 |
| RRIRFRPPRLPRPRPRPPSEPRP | 0.28 |
| RRIRFRPPRLPRPRPRPPSRPRP | 0.551 |
| RRIRFRPPRLPRPRPRPPTIPRP | -0.105 |
| RRIRFRPPRLPRPRPRPPTMPRP | 0.166 |
| RRIRFRPPRLPRPRPRPQADPRP | 0.0728 |
| RRIRFRPPRLPRPRPRPQAFPRP | -0.175 |
| RRIRFRPPRLPRPRPRPQALPRP | -0.137 |
| RRIRFRPPRLPRPRPRPQCYPRP | 0.04 |
| RRIRFRPPRLPRPRPRPQEDPRP | 0.0325 |
| RRIRFRPPRLPRPRPRPQFEPRP | -0.19 |
| RRIRFRPPRLPRPRPRPQGHPRP | 0.0395 |
| RRIRFRPPRLPRPRPRPQGTPRP | -0.068 |
| RRIRFRPPRLPRPRPRPQHHPRP | -0.659 |
| RRIRFRPPRLPRPRPRPQHIPRP | -0.51 |
| RRIRFRPPRLPRPRPRPQHPPRP | -0.326 |
| RRIRFRPPRLPRPRPRPQHWPRP | 0.0645 |
| RRIRFRPPRLPRPRPRPQIIPRP | -0.149 |
| RRIRFRPPRLPRPRPRPQITPRP | -0.481 |
| RRIRFRPPRLPRPRPRPQKEPRP | 0.172 |
| RRIRFRPPRLPRPRPRPQKHPRP | -0.327 |
| RRIRFRPPRLPRPRPRPQMEPRP | -0.059 |
| RRIRFRPPRLPRPRPRPQMQPRP | 0.203 |
| RRIRFRPPRLPRPRPRPQMYPRP | -0.725 |

| Sequence | shrunken log2 fold change |
| --- | --- |
| RRIRFRPPRLPRPRPRPQNMPRP | -0.797 |
| RRIRFRPPRLPRPRPRPQNVPRP | -0.16 |
| RRIRFRPPRLPRPRPRPQPVPRP | 0.356 |
| RRIRFRPPRLPRPRPRPQPWPRP | 0.334 |
| RRIRFRPPRLPRPRPRPQQTPRP | -0.0409 |
| RRIRFRPPRLPRPRPRPQRLPRP | 0.106 |
| RRIRFRPPRLPRPRPRPQTCPRP | -0.31 |
| RRIRFRPPRLPRPRPRPQTIPRP | -0.485 |
| RRIRFRPPRLPRPRPRPQVAPRP | 0.147 |
| RRIRFRPPRLPRPRPRPQWDPRP | -0.272 |
| RRIRFRPPRLPRPRPRPQWGPRP | -0.139 |
| RRIRFRPPRLPRPRPRPQYHPRP | -1.15 |
| RRIRFRPPRLPRPRPRPRAAPRP | 0.408 |
| RRIRFRPPRLPRPRPRPRCLPRP | -0.124 |
| RRIRFRPPRLPRPRPRPRDVPRP | 0.728 |
| RRIRFRPPRLPRPRPRPREAPRP | 0.115 |
| RRIRFRPPRLPRPRPRPREEPRP | -0.0431 |
| RRIRFRPPRLPRPRPRPRILPRP | 0.0716 |
| RRIRFRPPRLPRPRPRPRMHPRP | -0.0776 |
| RRIRFRPPRLPRPRPRPRMIPRP | -0.517 |
| RRIRFRPPRLPRPRPRPRMKPRP | -0.0673 |
| RRIRFRPPRLPRPRPRPRMSPRP | 0.000208 |
| RRIRFRPPRLPRPRPRPRNDPRP | -0.218 |
| RRIRFRPPRLPRPRPRPRNFPRP | -0.0477 |
| RRIRFRPPRLPRPRPRPRQFPRP | -0.0547 |

| Sequence | shrunken log2 fold change |
| --- | --- |
| RRIRFRPPRLPRPRPRPRQVPRP | -0.331 |
| RRIRFRPPRLPRPRPRPRQWPRP | 0.39 |
| RRIRFRPPRLPRPRPRPRQYPRP | -0.465 |
| RRIRFRPPRLPRPRPRPRSEPRP | 0.11 |
| RRIRFRPPRLPRPRPRPRSKPRP | 0.0303 |
| RRIRFRPPRLPRPRPRPRSMPRP | -0.408 |
| RRIRFRPPRLPRPRPRPRSYPRP | -0.268 |
| RRIRFRPPRLPRPRPRPRTDPRP | -0.0313 |
| RRIRFRPPRLPRPRPRPRVCPRP | 0.152 |
| RRIRFRPPRLPRPRPRPRVEPRP | 0.61 |
| RRIRFRPPRLPRPRPRPRWGPRP | 0.143 |
| RRIRFRPPRLPRPRPRPRWQPRP | 0.229 |
| RRIRFRPPRLPRPRPRPSAFPRP | -0.204 |
| RRIRFRPPRLPRPRPRPSCAPRP | -0.22 |
| RRIRFRPPRLPRPRPRPSCHPRP | -0.495 |
| RRIRFRPPRLPRPRPRPSCMPRP | -0.831 |
| RRIRFRPPRLPRPRPRPSCSPRP | -0.498 |
| RRIRFRPPRLPRPRPRPSDWPRP | 0.0908 |
| RRIRFRPPRLPRPRPRPSEHPRP | -0.323 |
| RRIRFRPPRLPRPRPRPSGEPRP | -0.135 |
| RRIRFRPPRLPRPRPRPSHLPRP | -0.737 |
| RRIRFRPPRLPRPRPRPSIMPRP | -0.65 |
| RRIRFRPPRLPRPRPRPSKCPRP | -0.26 |
| RRIRFRPPRLPRPRPRPSKEPRP | 1.3 |
| RRIRFRPPRLPRPRPRPSPCPRP | -0.508 |
